Tests used:
[1] = target: T1, full length wild type human ACVR1 on HEK293/BRE-luc/hACVR1-wild type cells (human, UniProt Q04771 21-509); experiment: flow cytometry, 66.6 nM antibody, HEK293/hACVR1-wt cells
T1 construct: also called HEK293/hACVR1-wt; hACVR1-wt
T1 sequence: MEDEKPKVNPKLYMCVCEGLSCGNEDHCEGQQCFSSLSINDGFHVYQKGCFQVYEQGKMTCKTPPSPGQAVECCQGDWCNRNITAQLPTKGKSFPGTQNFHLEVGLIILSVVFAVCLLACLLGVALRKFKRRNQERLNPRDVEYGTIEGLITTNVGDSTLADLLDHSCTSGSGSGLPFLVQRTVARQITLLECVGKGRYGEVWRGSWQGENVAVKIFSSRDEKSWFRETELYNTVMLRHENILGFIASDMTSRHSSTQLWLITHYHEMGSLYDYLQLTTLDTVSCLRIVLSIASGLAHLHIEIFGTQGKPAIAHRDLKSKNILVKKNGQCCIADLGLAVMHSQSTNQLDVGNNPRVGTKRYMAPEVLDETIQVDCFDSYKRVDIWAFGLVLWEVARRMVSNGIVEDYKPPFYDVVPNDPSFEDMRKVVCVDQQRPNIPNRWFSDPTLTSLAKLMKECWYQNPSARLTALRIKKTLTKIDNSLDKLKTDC
Method: (§1) Cells were fixed using BD CytoFix™ (Becton Dickinson, #554655) and analyzed on either Hypercyt® or IQue® Flow Cytometers (Intellicyt®). Unstained and secondary antibody alone controls were also tested for all cell lines. The results were analyzed using ForeCyt® (IntelliCyt®) software to determine the geometric means of fluorescence for viable cells and binding ratios were calculated by normalizing the geometric mean value of the test condition by the geometric mean value of the corresponding unstained cells.

[2] = target: T2, human ACVR1 extracellular domain expressed with a C-terminal mouse IgG2a Fc tag (human); experiment: SPR (Biacore), mAb captured, 37 C
T2 construct: also called hACVR1-mFc
T2 chain: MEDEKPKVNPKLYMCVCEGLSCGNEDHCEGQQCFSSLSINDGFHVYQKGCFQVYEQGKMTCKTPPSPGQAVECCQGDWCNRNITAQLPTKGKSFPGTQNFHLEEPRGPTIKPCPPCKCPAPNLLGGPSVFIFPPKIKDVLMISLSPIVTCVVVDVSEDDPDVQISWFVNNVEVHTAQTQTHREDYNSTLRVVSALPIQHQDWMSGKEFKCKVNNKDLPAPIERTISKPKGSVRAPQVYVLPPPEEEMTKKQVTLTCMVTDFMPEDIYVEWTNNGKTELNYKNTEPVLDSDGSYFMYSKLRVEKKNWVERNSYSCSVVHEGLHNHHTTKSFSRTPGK
Method in brief: (§2)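 Captured antibody surfaces (anti-human Fc) received ACVR1 protein in HEPES-buffered saline with EDTA and Tween-20, pH 7.4. Kinetics were fitted 1:1, with KD taken from the rate constants.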

[3] = target: T3, human ACVR1 extracellular domain expressed with a C-terminal myc-myc-hexahistidine tag (human); experiment: SPR (Biacore), mAb captured, 37 C
T3 construct: also called hACVR1-MMH
T3 chain: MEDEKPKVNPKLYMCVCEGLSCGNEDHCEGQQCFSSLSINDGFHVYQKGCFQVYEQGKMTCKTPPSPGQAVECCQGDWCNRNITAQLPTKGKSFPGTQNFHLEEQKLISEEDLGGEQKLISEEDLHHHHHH
Method in brief: as §2

[4] = target: T4, mouse ACVR1 extracellular domain expressed with a C-terminal myc-myc-hexahistidine tag (mouse); experiment: SPR (Biacore), mAb captured, 37 C
T4 construct: also called mACVR1-MMH; mACVR1-mmh
T4 chain: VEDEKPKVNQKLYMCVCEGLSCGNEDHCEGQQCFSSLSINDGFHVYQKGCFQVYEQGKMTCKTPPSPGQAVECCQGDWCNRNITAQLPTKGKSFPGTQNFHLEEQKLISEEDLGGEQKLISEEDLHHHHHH
Method in brief: as §2

[5] = target: T2, human ACVR1 extracellular domain …; experiment: SPR (Biacore), mAb captured, 25 C
Method in brief: as §2

[6] = target: T3, human ACVR1 extracellular domain …; experiment: SPR (Biacore), mAb captured, 25 C
Method in brief: as §2

[7] = target: T4, mouse ACVR1 extracellular domain …; experiment: SPR (Biacore), mAb captured, 25 C
Method in brief: as §2

[8] = target: T5, full length human ACVR1 (R206H) on HEK293/BRE-luc/hACVR1-R206H-clone H2 cells (human, UniProt Q04771 21-509); experiment: flow cytometry, 66.6 nM antibody, HEK293/hACVR1-R206H cells
T5 construct: also called HEK293/hACVR1-R206H
T5 sequence: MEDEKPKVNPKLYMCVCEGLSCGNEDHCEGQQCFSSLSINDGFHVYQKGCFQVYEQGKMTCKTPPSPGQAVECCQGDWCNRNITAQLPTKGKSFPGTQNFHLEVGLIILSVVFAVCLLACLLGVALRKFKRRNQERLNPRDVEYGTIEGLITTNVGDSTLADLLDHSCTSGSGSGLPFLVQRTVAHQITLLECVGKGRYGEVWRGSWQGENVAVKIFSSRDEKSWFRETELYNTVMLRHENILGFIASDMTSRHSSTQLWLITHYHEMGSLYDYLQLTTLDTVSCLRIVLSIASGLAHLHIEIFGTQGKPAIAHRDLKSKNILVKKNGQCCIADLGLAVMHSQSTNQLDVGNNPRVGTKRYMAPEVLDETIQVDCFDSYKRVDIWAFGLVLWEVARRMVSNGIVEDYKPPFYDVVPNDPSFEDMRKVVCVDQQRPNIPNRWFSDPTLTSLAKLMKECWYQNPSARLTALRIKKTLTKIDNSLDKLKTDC
Method: as §1

[9] = target: T5, full length human ACVR1 (R206H) on …; experiment: cell-based or functional assay

B1: mAb22125 (antibody, human IgG4 S228P, kappa, V domains shown)
VH: QVQLVQSGAEVKKPGASVKVSCKASGYTFTGYYMHWVRQAPGQGLEWMGWINPNSVGTNFAQKFQGRVTMTRDTSISTAYMELSRLRSDDTAVYYCTRDGAAAGLFDYWGQGTLVTVSS
VL: DIQMTQSPSSLSASVGDRVTITCRASQGINNYLAWYQQKPGKVPKLLIYAASTLQSGVPSRFSGSGSGTDFTLTISSLQPEDVATYYCQKFNSAPLTFGGGTKVEIKR
Q: Which “MFI - Normalized to Unstained Control” value [1] does the source give for B1 here?
A: 183 fold

Q: And the “100 nM Ag Bound (RU)” value [2]?
A: 243 RU

Q: And the Kd [2]?
A: 79.2 nM

Q: What about the koff [2] of the same binder?
A: 0.0577 s⁻¹

Q: And the kon [2]?
A: 729000 M⁻¹ s⁻¹

Q: And the t½ [2]?
A: 12 s

Q: What about the “900 nM or 100 nM Ag Bound (RU)” value [3] of the same binder?
A: 25 RU

Q: And the “900 nM or 100 nM Ag Bound (RU)” value [4]?
A: 23 RU

Q: And the “100 nM Ag Bound (RU)” value [5]?
A: 268 RU

Q: What about the Kd [5] of the same binder?
A: 12.3 nM

Q: And the koff [5]?
A: 0.00802 s⁻¹

Q: And the kon [5]?
A: 652000 M⁻¹ s⁻¹

Q: And the t½ [5]?
A: 84 s

Q: And the “900 nM or 100 nM Ag Bound (RU)” value [6]?
A: 44 RU

Q: What about the Kd [6] of the same binder?
A: 1020 nM

Q: What about the koff [6] of the same binder?
A: 0.42 s⁻¹

Q: What about the kon [6] of the same binder?
A: 413000 M⁻¹ s⁻¹

Q: What about the t½ [6] of the same binder?
A: 1.8 s

Q: What about the “900 nM or 100 nM Ag Bound (RU)” value [7] of the same binder?
A: 41 RU

Q: What about the Kd [7] of the same binder?
A: 836 nM

Q: And the koff [7]?
A: 0.575 s⁻¹

Q: And the kon [7]?
A: 688000 M⁻¹ s⁻¹

Q: And the t½ [7]?
A: 1.2 s

Q: What about the “MFI - Normalized to Unstained Control” value [8] of the same binder?
A: 235 fold

Q: What about the “IC50 [M], BRE-luc reporter, 3 nM hActivin A” value [9] of the same binder?
A: 1.9e-08 M

Q: What about the “IC50 [M], BRE-luc reporter, 3 nM hBMP7” value [9] of the same binder?
A: 1.6e-08 M

B2: mAb22115 (antibody, human IgG4 S228P, kappa, V domains shown)
VH: EVQLVESGGGLVQPGGSLRLSCAASGFTSSRYWMSWVRQAPGKGLEWLANINQDGSEKYYLESLRGRFTISRDNAKNSLYLQMNNLRAEDTAVYYCARDEEGYWGQGTLVTVSS
VL: DVVMTQSLLSLSVTLGQPASISCRSSQSLVYSDGDTYLSWFQQRPGQSPRRLIYKVSHRDSGVPDRFRGSGSGTDFTLKISRVEAEDVGIYYCMQGTHWPPTFGQGTKVEIKR
Q: Which results are given for B2?
A: MFI - Normalized to Unstained Control [1]: 4 fold; 100 nM Ag Bound (RU) [2]: 317 RU; Kd [2]: 30.1 nM; koff [2]: 0.0025 s⁻¹; kon [2]: 83300 M⁻¹ s⁻¹; t½ [2]: 276 s; 900 nM or 100 nM Ag Bound (RU) [3]: 86 RU; Kd [3]: 438 nM; koff [3]: 0.0308 s⁻¹; kon [3]: 70400 M⁻¹ s⁻¹; t½ [3]: 22.2 s; 900 nM or 100 nM Ag Bound (RU) [4]: 85 RU; Kd [4]: 504 nM; koff [4]: 0.0297 s⁻¹; kon [4]: 58900 M⁻¹ s⁻¹; t½ [4]: 23.4 s; 100 nM Ag Bound (RU) [5]: 264 RU; Kd [5]: 11.4 nM; koff [5]: 0.000765 s⁻¹; kon [5]: 66900 M⁻¹ s⁻¹; t½ [5]: 900 s; 900 nM or 100 nM Ag Bound (RU) [6]: 93 RU; Kd [6]: 145 nM; koff [6]: 0.00485 s⁻¹; kon [6]: 33400 M⁻¹ s⁻¹; t½ [6]: 144 s; 900 nM or 100 nM Ag Bound (RU) [7]: 94 RU; Kd [7]: 171 nM; koff [7]: 0.00478 s⁻¹; kon [7]: 28000 M⁻¹ s⁻¹; t½ [7]: 144 s; MFI - Normalized to Unstained Control [8]: 4 fold

From patent publication US20210253716A1 (Regeneron, published 2021)
